T1: TR10 (human, UniProt Q9UBN6 56-211, limits assumed)
T1 construct: The construct coated in the specificity phage ELISA is not described; also called TRAIL-R4; DcR2
T1 sequence: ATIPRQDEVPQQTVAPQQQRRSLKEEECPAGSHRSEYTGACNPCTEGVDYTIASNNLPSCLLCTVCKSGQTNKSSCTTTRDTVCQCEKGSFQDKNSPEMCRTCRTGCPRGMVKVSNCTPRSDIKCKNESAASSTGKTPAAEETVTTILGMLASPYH

T2: TR4-Fc fusion protein (human, UniProt O00220 109-240)
T2 construct: also called TR4:Fc receptor; not shown: Fc region
T2 chain: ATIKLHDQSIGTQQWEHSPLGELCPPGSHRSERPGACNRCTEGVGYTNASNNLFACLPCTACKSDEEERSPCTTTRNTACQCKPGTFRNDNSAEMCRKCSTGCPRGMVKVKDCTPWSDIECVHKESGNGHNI


Legend:
[1] = target: T3, TR7 (human, UniProt O14763 52-184); experiment: specificity phage ELISA, antigen coated at 1 ug/ml, anti-M13-HRP detection
T3 construct: The construct coated in the specificity phage ELISA is not described; also called TRAIL-R2; DR5
Description: (§1) Flexible 96-well plates (Falcon) were coated overnight at 4° C. with each antigen (1 μg/ml). All antigens were coated in PBS. After coating, the solutions were removed from the wells, and the plates were blocked for 1 hour at room temperature in MPBS. The plates were washed 3 times with PBS and then 50 μl of pre-blocked phage was added to each well. The plates were incubated at room temperature for 1 hour and then washed with 3 changes of PBST followed by 3 changes of PBS.
(§2) To each well, 50 μl of an anti-M13-HRP conjugate (Pharmacia) at a 1 in 5000 dilution in MPBS was added and the plates incubated at room temperature for 1 hour. Each plate was washed three times with PBST followed by three times with PBS.
(§3) Fifty μl of TMB substrate was then added to each well, and incubated at room temperature for 30 minutes or until colour development. The reaction was stopped by the addition of 25 μl of 0.5 M H₂SO₄. The signal generated was measured by reading the absorbance at 450 nm (A₄₅₀) using a microtitre plate reader (Bio-Rad 3550).

[2] = target: T1, TR10; experiment: as above
Description: as §1, §2, §3

[3] = target: BLyS (human, UniProt Q9Y275 134-285); experiment: as above
Description: as §1, §2, §3

[4] = target: T2, TR4-Fc fusion protein; experiment: SPR (BIAcore 2000), TR4:Fc amine-coupled on CM5 chip, IgG1 as analyte 0.75-65 nM, TR2:Fc control cell, double reference subtraction, 1:1 Langmuir fit, 25 C
Description: The optimal pH for this coupling was analyzed using preconcentration experiments ranging from pH 4-7 and was determined to be pH 4.0 for both the TR4 and the TR2 receptor. Amine coupling was used to covalently bind each receptor (fc) to the dextran matrix on the CM5 sensor chip. The immobilization experiment was performed using the manual injection mode. The entire immobilization experiment was performed at 5 μL/min. A 3-minute injection of EDC/NHS (1:1) was applied to each flow cell to active esters. A target level of ˜200RU was set as the goal for all each flow cell. Fc-fusion receptors, TR4 and TR2 at 5 μg/mL, were immobilized onto individual flow cells of a sensor chip. The amount applied varied from 8-14 μL. A 3-minute ethanolamine injection completed the immobilization experiment by inactivating the esters.
The kinetics cycles were performed as follows: The flow rate for the entire cycle was 25 μL/minute with the flow path including both the control (TR2) and experimental (TR4) flow cell at all times. A 1-minute buffer injection was applied to stabilize the baseline. The purified antibody (IgG1 antibody comprising the VH and VL domains of each of the T1014A04, T1014G03, T1014F08, and T14G04 scFvs) was diluted from 10 μg/mL (65 nM) to 0.115 μg/mL (0.75 nM) in running buffer and tested in duplicate. Each concentration was in contact with the control (TR2) and the experimental (TR4) flow cell during a 4-minute association and a 10-minute dissociation phase. Regeneration was performed using 25 mM NaOH from 5-12 μL depending on the sample concentration.
A double-reference subtraction was performed, which refers to the control flow cell subtraction for every cycle, in addition to a buffer cycle subtraction. The 1:1 Langmuir model was used for all evaluation fitting.

T3 sequence (O14763 52-184 limits assumed): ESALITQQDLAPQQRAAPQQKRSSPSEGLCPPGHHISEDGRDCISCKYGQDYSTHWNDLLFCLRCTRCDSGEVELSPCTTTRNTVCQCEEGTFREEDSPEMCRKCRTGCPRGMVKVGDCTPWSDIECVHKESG

| binding result [1] | binding result [2] | binding result [3] | Kd [4] | Binder |
| --- | --- | --- | --- | --- |
| no binding | no binding | no binding |  | scFv T1014G04 (scFv) scFv: EVQLVQSGADVKRPGASVKVSCKISGDSFTAYFIHWVRQAPGQGLEWMGWFNPDSGTADSAQKFHGRVTMTRDTSSSTAFLELSRLRSDDTAVYYCVRQHRGNTFAPWGRGTLVTVSSGGGGSGGGGSGGGGSAQPVLTQPPSASGSPGQSVTISCTGTSSDVGSYEYVSWYQQHPGKAPRLMISEVNKRPSGVPNRFSGSKSGNTASLTVSGLQADDEADYYCSSYAGSNNWVFGGGTKVTVLG |
| no binding | no binding | no binding |  | scFv T1014A04 (scFv) scFv: EVQLVQSGADVKRPGASVKVSCKISGDSFNAYFIHWVRQAPGQGLEWMGWFNPDSGTADSAQKFHGRVTMTRDTSSSTAFLELSRLRSDDTAVYYCVRQHRGNTFAPWGRGTMVTVSSGGGGSGGGGSGGGGSAQSVLTQPPSASGSPGQSVTISCTGTTSDVGGYNYVSWYQQHPGKAPKLMIYGVNQRPSGVPDRFSGSKSGNTASLTVSGLQAEDEADYYCSSYAGSNNWVFGGGTKLTVLG |
| no binding | no binding | no binding |  | scFv T1014F08 (scFv) scFv: EVQLVQSGAEVKKPGASVKLSCRVSGDTFTAYFIHWVRQAPGQGPEWMGWFNPISGTAGSAARFRGRVAMTRDTSISTAYMELNRLTFDDTAVYYCARQHRGNTFDPWGKGTLVTVSSGGGGSGGGGSGGGGSALPVLTQPPSASGSPGQSVTISCTGTSSDVGGYKYVSWYQQHPGKAPKLMIYEVSMRPSGVPDRFSGSKSGNTASLTVSGLQAEDEADYYCASYAGSNNWVFGGGTKLTVLG |
|  |  |  | 468 pM | IgG1 antibody comprising the VH and VL domains of the T1014A04 scFv (antibody, V domains shown, Whole IgG1; also called IgG1 format of T1014A04) VH: EVQLVQSGADVKRPGASVKVSCKISGDSFNAYFIHWVRQAPGQGLEWMGWFNPDSGTADSAQKFHGRVTMTRDTSSSTAFLELSRLRSDDTAVYYCVRQHRGNTFAPWGRGTMVTVSS VL: QSVLTQPPSASGSPGQSVTISCTGTTSDVGGYNYVSWYQQHPGKAPKLMIYGVNQRPSGVPDRFSGSKSGNTASLTVSGLQAEDEADYYCSSYAGSNNWVFGGGTKLTVLG |
|  |  |  | 194 pM | IgG1 antibody comprising the VH and VL domains of the T1014G04 scFv (antibody, V domains shown, Whole IgG1; also called T14G04) VH: EVQLVQSGADVKRPGASVKVSCKISGDSFTAYFIHWVRQAPGQGLEWMGWFNPDSGTADSAQKFHGRVTMTRDTSSSTAFLELSRLRSDDTAVYYCVRQHRGNTFAPWGRGTLVTVSS VL: QPVLTQPPSASGSPGQSVTISCTGTSSDVGSYEYVSWYQQHPGKAPRLMISEVNKRPSGVPNRFSGSKSGNTASLTVSGLQADDEADYYCSSYAGSNNWVFGGGTKVTVLG |
| no binding | no binding | no binding |  | scFv T1014B11 (scFv) scFv: EVQLVQSGAEVKKPGASVKVSCKISGDSFTAYFIHWLRQAPGEGLEWMGWFNPISGTAGSPQKFHGRVAMTRDTSISTAYMELTRLASDDTAIYYCARQHHSNTFDPWGQGTLVTVSSGGGGSGGGGSGGGGSAQSALTQPASVSGSPGQSITISCTGTNSDVGGYNYVSWYQQHPGKAPKLMIYEVNNRPSGVSNRFSGSKSGNTASLTISGLQADDEADYYCSSYTTSNTWVFGGGTKLTVLG |
|  |  |  | 554 pM | IgG1 antibody comprising the VH and VL domains of the T1014G03 scFv (antibody, V domains shown, Whole IgG1) VH: EVQLVQSGAEVKMPGASVKLSCRVSGDTFTAYFIHWVRQAPGQGLEWMGWFNPISGTAGSAEKFRGRVAMTRDTSISTAYMELNRLTFDDTAVYYCARQHRGNTFDPWGQGTLVTVSS VL: QSALTQPASVSGSPGQSITISCTGTSSDIGAYKYVSWYQQHPGKAPKLVIYEVSNRPSGVSSRFSGSKSGQTASLTISGLQADDEADYYCNSYQGYNTWVFGGGTKVTVLG |
| no binding | no binding | no binding |  | scFv T1014G03 (scFv) scFv: EVQLVQSGAEVKMPGASVKLSCRVSGDTFTAYFIHWVRQAPGQGLEWMGWFNPISGTAGSAEKFRGRVAMTRDTSISTAYMELNRLTFDDTAVYYCARQHRGNTFDPWGQGTLVTVSSGGGGSGGGGSGGGGSAQSALTQPASVSGSPGQSITISCTGTSSDIGAYKYVSWYQQHPGKAPKLVIYEVSNRPSGVSSRFSGSKSGQTASLTISGLQADDEADYYCNSYQGYNTWVFGGGTKVTVLG |
